Measured values published in US20160319287A1 (WESTF LISCHE WILHELMS UNIVERSIT T M NSTER, published 2016).
No end group written: not given here. FI = 5(6)-carboxyfluorescein

Legend:
Assay in all cases: cell-based or functional assay
MBP-M1^C-SENP1-H6 = biological target: T1, MBP-M1^C-SENP1-H6 (human, UniProt Q9P0U3 419-644)
T1 sequence (Q9P0U3 whole entry, looked up): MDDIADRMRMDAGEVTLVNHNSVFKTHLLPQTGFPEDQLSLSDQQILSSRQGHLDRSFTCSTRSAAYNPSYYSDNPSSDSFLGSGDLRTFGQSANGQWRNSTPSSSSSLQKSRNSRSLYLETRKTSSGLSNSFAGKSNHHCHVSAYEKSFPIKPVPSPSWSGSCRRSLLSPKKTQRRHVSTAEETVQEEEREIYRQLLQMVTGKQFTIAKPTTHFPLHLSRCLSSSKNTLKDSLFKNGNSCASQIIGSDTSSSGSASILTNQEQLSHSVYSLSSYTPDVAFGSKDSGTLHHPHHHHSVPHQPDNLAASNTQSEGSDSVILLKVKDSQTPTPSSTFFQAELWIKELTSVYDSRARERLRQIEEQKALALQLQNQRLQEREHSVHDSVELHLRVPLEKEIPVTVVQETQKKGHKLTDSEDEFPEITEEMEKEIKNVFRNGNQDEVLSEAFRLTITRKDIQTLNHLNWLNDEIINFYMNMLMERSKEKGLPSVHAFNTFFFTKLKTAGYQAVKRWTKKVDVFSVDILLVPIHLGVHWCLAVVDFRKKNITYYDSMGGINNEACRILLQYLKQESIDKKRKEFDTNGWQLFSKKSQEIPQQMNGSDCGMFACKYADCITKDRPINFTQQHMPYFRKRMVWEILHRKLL

MBP-M1^C-Ubc9-H6 = MBP-M1^C-Ubc9-H6 (murine, UniProt P63280 1-158)
MBP-M1^C-Ubc9-H6, sequence (P63280 other isoform, or with tags, fused parts or gaps): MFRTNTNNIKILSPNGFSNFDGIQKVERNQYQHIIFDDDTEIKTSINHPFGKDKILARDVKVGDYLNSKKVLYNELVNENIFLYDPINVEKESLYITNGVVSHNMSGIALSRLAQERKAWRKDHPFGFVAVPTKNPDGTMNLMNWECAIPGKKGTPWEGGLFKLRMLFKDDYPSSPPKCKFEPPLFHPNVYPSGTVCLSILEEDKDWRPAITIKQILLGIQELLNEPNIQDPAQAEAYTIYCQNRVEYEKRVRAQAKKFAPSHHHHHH

MBP-M1^C-Gluc-H6 = MBP-M1^C-Gluc-H6 (Gaussia princeps)
MBP-M1^C-Gluc-H6 (Gaussia princeps), sequence (main, as listed by the source): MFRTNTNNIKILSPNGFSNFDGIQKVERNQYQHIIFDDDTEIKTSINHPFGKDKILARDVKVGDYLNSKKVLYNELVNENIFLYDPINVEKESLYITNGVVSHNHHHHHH

MBP-M1^C-EGFP-H6 = biological target: MBP-M1^C-EGFP-H6
MBP-M1^C-EGFP-H6, sequence (main, as listed by the source): as above

MBP-M1^C-mRFP-H6 = biological target: MBP-M1^C-mRFP-H6
MBP-M1^C-mRFP-H6, sequence (main, as listed by the source): as above

[1] = biological target: WT^C-Trx-H6 (AceL-TerL Int^C fused to hexahistidine-tagged thioredoxin) (UniProt P0AA25 2-109 = thioredoxin)
WT^C-Trx-H6 (AceL-TerL Int^C fused to hexahistidine-tagged thioredoxin), sequence (P0AA25 other isoform, or with tags, fused parts or gaps): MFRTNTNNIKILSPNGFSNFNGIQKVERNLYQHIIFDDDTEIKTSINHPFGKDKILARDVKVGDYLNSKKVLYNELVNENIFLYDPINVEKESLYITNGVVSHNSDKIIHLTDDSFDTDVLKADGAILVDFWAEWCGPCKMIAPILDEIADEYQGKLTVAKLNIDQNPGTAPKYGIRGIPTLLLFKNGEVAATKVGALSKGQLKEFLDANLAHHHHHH

B1: pepWT^N (FI-KKEFE-IntN), synthetic peptide with the Int^N of the AceL-TerL intein (peptide)
peptide: {FI}-KKEFECVYGDTMVETEDGKIKIEDLYKRLA
MBP-M1^C-SENP1-H6
  yield of the N-terminally labelled splice product after 3 h at 8° C.: ~80%
MBP-M1^C-Ubc9-H6
  yield of the N-terminally labelled splice product after 3 h at 8° C.: ~80%
MBP-M1^C-Gluc-H6
  yield of the N-terminally labelled splice product after 3 h at 8° C.: ~80%
MBP-M1^C-EGFP-H6
  yield of the N-terminally labelled splice product after 3 h at 8° C.: ~80%
MBP-M1^C-mRFP-H6
  yield of the N-terminally labelled splice product after 3 h at 8° C.: ~80%
[1]
  splicing rate at 37° C. against 8° C.: ~50 fold slower
  t½ of splicing at 8° C.: 7.2 min
